Source: the nanobody polyreactivity screen of Harvey et al. (2022)

Assay: yeast display, Sf9 membrane polyspecificity reagent, FACS + sequencing; frameworks hold sequencing errors
Method in brief: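 A synthetic nanobody library was expressed on Saccharomyces cerevisiae BJ5465 by galactose induction for 36–48 hours. The library was stained for 1 hour at 4 °C with 10% biotinylated, detergent-solubilized Sf9 membrane reagent and enriched with streptavidin microbeads before FACS. Low and high (top ~1%) gates were set on anti-HA fluorescence for expression and streptavidin fluorescence for reagent binding, and each polyreactivity label reflects the gate of origin.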

Row | Sequence | polyreactivity (PSR sort gate)
1 | QVQLVESGGGLVQAGGSLRLSCAASGIFWYNMGWYRPAPGKERELVAAITASGGSRTYYADSVKGRFTISRDNAKNTVYLQMNSLKPEDTAVYYCAASSYSYLYYSWGQGTQVTVSS | high polyreactivity
2 | QVQLVESGGGLVQAGGSLRLSCAASGIFWYYAMGWYRQAPGKERELVAAISSGGSTYYADSVKGRFTISRDNAKNTVSLQMNSLKPEDTAVYYCNAVYWKASHYGYGYWGQGTQVTVSS | high polyreactivity
3 | QVQLVESGGGLVQAGGSLRLSCAASGIFYFYAMGWYRQAPGKERELVAAITSSGGNTTYADSVKGRFTISRDNAKNTVYLQMNSLKPEDTAVYYCNADYFQDRLDYWGQGTQVTVSS | low polyreactivity
4 | QVQLVESGGGLVQAGGSLRLSCAASGIIFAFSAMGWYRQAPGKERELVAGITSGGDTYYADSVKGRFTISRDNAKNTVYLQMNSLKPEDTAVYYCAADVQYPNRAGWLYWYATNFDYWGQGTQVTVSS | high polyreactivity
5 | QVQLVESGGGLVQAGGSLRLSCAASGIIFAGNAMGWYRQEPGKERELVAAISSGTTTNYADSVKGRFTISRDNAKNTVYLQMNSLKPEDTAVYYCAADDFPYKSDYWGQGTQVTVSS | low polyreactivity
6 | QVQLVESGGGLVQAGGSLRLSCAASGIIFASNAMGWYRQAPGKERELVAAINRSGGSTYYADSVKGRFTISRDNAKNTVYLQMNSMKPEDTAVYYCAADYRFYSPTKYSYDYWGQGTLVTVSS | high polyreactivity
7 | QVQLVESGGGLVQAGGSLRLSCAASGIIFATYAMGWYRQAPGKERELVAAISSGGRTYYADSVKGRFTISRDNAKNTVYFQMNSLKPEDTAVYYCAAKSGGRSSLYNYWGQGTQVTVSS | high polyreactivity
8 | QVQLVESGGGLVQAGGSLRLSCAASGIIFAVYAMGWYRQAPGKERELVAAISTSGGRTYYADSVKGRFTISRDNAKNTVYLQMNSLKPEDTAVYYCAAEYVGKGTPDDYDYWGQGTQVTVSS | high polyreactivity
9 | QVQLVESGGGLVQAGGSLRLSCAASGIIFAYYARRWYRHAPGKERELVAAISWSGTSTYYADSVKGRFTISRDNAKNTVYLQMNSLKPEDTAVYYCNAYGLYSDMDYWGQGTQVTVSS | high polyreactivity
10 | QVQLVESGGGLVQAGGSLRLSCAASGIIFAYYDMGLYRKAPGKERELVAAISSTGSNTYYADSVKGRFTISRDNAKNTVYLQMNSLKPEDTAVYYCAAGYAYYIGHGDYWGQGTQVTVSS | high polyreactivity
11 | QVQLVESGGGLVQAGGSLRLSCAASGIIFDDNAMGGYRQAPGKERELVAAITYSGGSTYYADSVKGRFTISRDKAKNTVYLQMNSLKPEDTAVYYCAADNRPIVGSYYYWGQGTQVTVSS | low polyreactivity
12 | QVQLVESGGGLVQAGGSLRLSCAASGIIFDDNAMGWYRQAPGKERELVAAINRDGSTYYADSVKGRFTISRDNAKNTVYLQLNSLKPEDTAVYYWAADFYGPRSAVYFLRYSTRYYWGQGTQVTVSS | low polyreactivity
13 | QVQLVESGGGLVQAGGSLRLSCAASGIIFDDYAMGWYRQATGKERELVAVISSSGGNTYYADSVKVRFTISRDNAKNSVYLQMNSLKPEDTAVYYCAATYYYKSIYWFEYWGQGTQVTVSS | low polyreactivity
14 | QVQLVESGGGLVQAGGSLRLSCAASGIIFDEYAMGWYRQAPGKEREMVAAITSGGSTYYADSVKGRFTISRDNAKNTVYLQMNSLKPEDTAVYYCNAYSSYGTFFYWAWPYYYWGQGTQVTVSS | high polyreactivity
15 | QVQLVESGGGLVQAGGSLRLSCAASGIIFDGNAMGGYRQAAGKERELVAAHTSSTDSTYYADSVKGRFTISRDNAKNTVYLQMNSLKPEDTAVYYCAADYPSKTFDYWGQGTQVTVSS | low polyreactivity
16 | QVQLVESGGGLVQAGGSLRLSCAASGIIFDGYAMGWYRQAPGKERELVAAISGHGGSTYYADSVKGRFTISRDNAKNTVYLQMNSLKPEDTAVYYCAAEYVYWRIGQYDYWGQGTQVTVSS | high polyreactivity
17 | QVQLVESGGGLVQAGGSLRLSCAASGIIFDHYAMGWYRQAPGKERELVAAISTGGGNTYYADSVKGRFTISRDNAKNTVYLQMNSLKPEDTAVYYCAARRGTGSYSYRYPYGYDYWGQGTQVTVSS | low polyreactivity
18 | QVQLVESGGGLVQAGGSLRLSCAASGIIFDRYAMGWYRQAPGKERELVAAITYGGGSTYYADSVKGRFTISRDNAKNTVYLQMNSLKTEDTAVYYCAAVPRSGMYYWGQGTQVTVSS | high polyreactivity
19 | QVQLVESGGGLVQAGGSLRLSCAASGIIFDTYAMGWYIQAPGKERELVAAISRSGDTTYYADSVKGRFTISRDNAKNTVYLQMNSLKPEDTAVYYCNARQSRWDKYDYWGQGTQVTVSS | high polyreactivity
20 | QVQLVESGGGLVQAGGSLRLSCAASGIIFDTYAMGWYRQAPGKERELVAAISRSGDTTYYADSVKGRFTISRDNAKNTVFLQMNSLKPEDTAVYYCNARQSRWDKYDYWGQGTQVTVSS | high polyreactivity
21 | QVQLVESGGGLVQAGGSLRLSCAASGIIFDTYAMGWYRQAPGKERELVAAISRSGDTTYYADSVKGRFTISRDNAKNTVYLQMNSLKPEDTAVYYCYARQSRWDKYDYWGQGTQVTVSS | high polyreactivity
22 | QVQLVESGGGLVQAGGSLRLSCAASGIIFDYNAMGWYRQAPGKERELVAAISGRSGRTYYADSVKGRFTISRDNAMNTVYLQMNSLKPEDTAVYYCAARWYAGGNYWGQGTQVTVSS | high polyreactivity

Row | Sequence | polyreactivity (PSR sort gate)
23 | QVQLVESGGGLVQAGGSLRLSCAASGIIFDYYAMGWYRPAPGKERELVAAINWNGGTPYYADSVKGRFTISRDYAKKTVFLQMNSLKPEDSAVYYCNTRGRYLMVDWGHGTQVTVSS | high polyreactivity
24 | QVQLVESGGGLVQAGGSLRLSCAASGIIFDYYAMGWYRQAPGKERELVAAITTSGGRTYYADSVKGRFTISRDNAKNTVNFQMNSLKPEDTAVYYCAASRPSPRPRYGYWGQGTQVTVSS | high polyreactivity
25 | QVQLVESGGGLVQAGGSLRLSCAASGIIFEYYAMGWSRPAPGKERQLVAAISSSGGSTYYADSVKVRFTISRDNAKNTVYLQMNSLKPEDTAVYYCATRYAASTSRWQYYYWGQGTQVTVSS | high polyreactivity
26 | QVQLVESGGGLVQAGGSLRLSCAASGIIFFFYDMGWYRQSPGKERELVAAISDDGVSTDYADSVKGRFTISRDNAKNTVYLQMNSLKPEDTAVYYCAAKTERVYPWFSFGYWVQGTQVTVSS | low polyreactivity
27 | QVQLVESGGGLVQAGGSLRLSCAASGIIFFLYAMGWYRPAPGKERELVAAISSGGSTYYADSVKGRFTISRDNAKNTVYLQMNSLKPEDTAVYYCNARYWPFRYYYWGQGTQVTVSS | high polyreactivity
28 | QVQLVESGGGLVQAGGSLRLSCAASGIIFFRNAMGWYRQAPGNERELVATITSGVSTNYADSVKGRFTISRDNAKNTVYLQKNSLKPEDTAVYYCATEGFPFYDFDYWGQGTQVTVSS | high polyreactivity
29 | QVQLVESGGGLVQAGGSLRLSCAASGIIFFTYAMGWYRQATGKERELVAAISSGGSTTYADSVKGRFTISRDNAKNTVYLQMNSLKPEDTAVYYCAAGTQAHDYVVRPIDMDYWGQGTQVTVSS | low polyreactivity
30 | QVQLVESGGGLVQAGGSLRLSCAASGIIFGEYAMGWYRQAPGKERELVAAISGSGSRTYYADSVKGRFTISRDNAKNTVYLQMNSLKPEDTAVYYCAVKGGGTRYGYWGQGTQVTVSS | high polyreactivity
31 | QVQLVESGGGLVQAGGSLRLSCAASGIIFGEYAMGWYRQAPGKERELVAAISQSGGTYYADSVKGRFTISRDNAKNTVYLQMNSLKPEDTAVYYCNADYWAYISRVRYDYWGQGTQVTVSS | low polyreactivity
32 | QVQLVESGGGLVQAGGSLRLSCAASGIIFGGYDMGWYRQAPGKERELVAAISWSGGSTYYADSVKGRFTISRDNAKNTVYLQMNSLKPEDTAVYYCAAAYYAPTRDYHYWGQGTQVTVSS | low polyreactivity
33 | QVQLVESGGGLVQAGGSLRLSCAASGIIFGGYTMGWYRQAPGKERELVAAISSTGASTYYADSVEGRFTISRDNAKNTVYLQMNSLKPEDTAVYYCNAKRAPWGTLYNYWGQGTQVTVSS | high polyreactivity
34 | QVQLVESGGGLVQAGGSLRLSCAASGIIFGHYAMGWYRQAPGKERELVAAIRSSGGTTYYADSVKGRFTISRDNAKNTVYLQMNSLKPEDTAVYYCAKRGVHLYHDYYWGQGTQVTVSS | low polyreactivity
35 | QVQLVESGGGLVQAGGSLRLSCAASGIIFGHYAMGWYRQAPGKERELVARITYSGTRTYYADSVKGRFTISRDNAKNTVYLQMNSLKPEDTAVYYCAAGYAYPRWVTAGNYWGQGTQVTVSS | high polyreactivity
36 | QVQLVESGGGLVQAGGSLRLSCAASGIIFGRYAMGWYRQAPGKEREFVAAITWRVGTTYYADSVKGRFTISRDNAKNTVYLQMNSLKPEDTAVYYCAARSRTGRYDYWGQGTQVTVSS | high polyreactivity
37 | QVQLVESGGGLVQAGGSLRLSCAASGIIFGRYAMGWYRQAPGKERELVAAINGSGGSTYYADSVKGRFTISRDNAKNTVYLQMNSLKPEDTAVYYCAVVYYGSIFVLEYDYWGQGTQVTVSS | high polyreactivity
38 | QVQLVESGGGLVQAGGSLRLSCAASGIIFGRYAMGWYRQAPGKERELVAAISGSGGITYYADSVKGRFTISRDNAKNTVYLQMNSLKPEDTAVYYCATRKYLTYNYWGQGTQVTVSS | high polyreactivity
39 | QVQLVESGGGLVQAGGSLRLSCAASGIIFGRYAMGWYRQAPGKERELVAAITSGGSTSYADSVKGRFTISRDNAKNTVYLQMNSLKPEDTAVYYCAVVFVWGWPGYYWGQGTQVTVSS | high polyreactivity
40 | QVQLVESGGGLVQAGGSLRLSCAASGIIFGRYAMGWYRQAPGKERELVAVISRSGGSTYYADSVKGRFTISRDYAKNSVYLQMNSLKPEDTAVYYCAARYTPTYNAGLDYWGQGSQVTVSS | high polyreactivity
41 | QVQLVESGGGLVQAGGSLRLSCAASGIIFGSYTMGWYIQAPGKERELVATISFSGGTTNYADSVKGRFTISRDNAKNTVYLQMNSLKPEDTAVYYCAARPAPATGKLDYWGQGTQVTVSS | low polyreactivity
42 | QVQLVESGGGLVQAGGSLRLSCAASGIIFGTYAMGWYRQAPGKERELVASITNGGNTNYADSVKGRFTISRDNAKNTVYLQMNSLKPEDTAVYYCAKDVPYWRPVVRYDYWGQGTQVTVSS | low polyreactivity
43 | QVQLVESGGGLVQAGGSLRLSCAASGIIFGVNVMGWYRQAPGKERELVATITWRGDSTYYADSVKGRFTISRDNAKNTVYLQMNSLKPEDTAVYYCARGARTGVREDDYWGQGTQVTVSS | low polyreactivity
